Test results published in paper PMC7501853.

Molecular target: nesprin-2-Giant, Q6ZWQ0-1
Experiment: Duolink PLA (proximity ligation assay) in cells
Conditions: chain shown with the change; Bax/Bak DKO MEFs, transient transfection, in the presence of Q-VD-OPH; anti-Bax (6A7) Ab and anti-nesprin-2G Ab; n = 3; parent: est. 5.1; read off a plot; scale: fold of normalized Duolink dots per transfected cell relative to GFP

response: 8.8
B1: GFP-Bax, Q07812 63-65A (protein)
chain: MDGSGEQPRGGGPTSSEQIMKTGALLLQGFIQDRAGRMGGEAPELALDPVPQDASTKKLSECAAAIGDELDSNMELQRMIAAVDTDSPREVFFRVAADMFSDGNFNWGRVVALFYFASKLVLKALCTKVPELIRTIMGWTLDFLRERLLGWIQDQGGWDGLLSYFGTPTWQTVTIFVAGVLTASLTIWKKMG
